The results in this text go back to the nanobody polyreactivity screen of Harvey et al. (2022).

The nature of this data set: yeast display, Sf9 membrane polyspecificity reagent, FACS + sequencing; frameworks hold sequencing errors. In a few lines: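 Nanobodies from a synthetic yeast display library (Saccharomyces cerevisiae BJ5465), induced 36–48 hours with galactose, were stained 1 hour at 4 °C with 10% biotinylated, detergent-solubilized Sf9 membrane reagent, enriched on streptavidin microbeads, then FACS-sorted. Anti-HA (expression) and streptavidin (reagent binding) fluorescence set low and high (top ~1%) gates. Polyreactivity labels come from the gate of origin. Genes were colony-PCR amplified, MiSeq 2 × 250 sequenced and filtered by CDR length.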
For “QVQLVESGGGLVQAGGSLRLSCAASGSIFLVNARGWYRQAPAKERELVASITWRGGRTYYADSVKGRFTISRDNAKNTDYLQMNSLKPEDTAVYYCAARNYRTGERLRYDYWGQGTQVTVSS”, the “polyreactivity (PSR sort gate)” value is “low polyreactivity”.

Regarding “QVQLVESGGGLVQAGGSLRLSCAASGSIFLVYAMGWYRQAPGKERELVAASDWSDTDTYYADSVKGRFTISRDNAKNTFYLQMNSLKPEDTAVYYCAADHVGVDFEYWGQGTQVTVSS”, the “polyreactivity (PSR sort gate)” value was “low polyreactivity”.

For “QVQLVESGGGLVQAGGSLRLSCAASGSIFLVYGMGWYRPAPGKERELVAAISRTGGRTYYADSVKGRFTISRDNSKNTVYLQMNSLKPEDTAVYYCAAAAQRPEGYYWGQGTQVTVSS”, the “polyreactivity (PSR sort gate)” value is “high polyreactivity”.

As for “QVQLVESGGGLVQAGGSLRLSCAASGSIFLVYGMGWYRQAPGKERELVAAITSSAGSTYYADSVKGRFTISRDNAKNTVYLQMNSLKPEDTAVYYCAARWAWSTYSYYYWGQGTQVTVSS”, the “polyreactivity (PSR sort gate)” value is listed as “high polyreactivity”.

Take “QVQLVESGGGLVQAGGSLRLSCAASGSIFLWYDMGWYRQAPGKERECVASITRSGGSTYYADSVKGRFTISRDNAKNTVYLQMNSLKPEDTAVYYCAASGATGRYSVYYHGYTYDYWGQGTQVTVSS”: the “polyreactivity (PSR sort gate)” value is listed as “low polyreactivity”.

Regarding “QVQLVESGGGLVQAGGSLRLSCAASGSIFLYNALGWYRQAPGKERELVAAIYKSGGSTYYADSVKGRFTISRDNEKNSVYLQMNSLKPEDTAVYYCAAGYGSRIRYGSEYDYWGQGTQVTVSS”, the “polyreactivity (PSR sort gate)” value was “low polyreactivity”.

Regarding “QVQLVESGGGLVQAGGSLRLSCAASGSIFLYNAMGWYIQAPGKERELVAAISKSGGSTYYADSVKGRFTISRDNAKNTVYLQMNSLKPEDTAVYYCAADFLPQSYNWYDYWGQGTEVTVSS”, the “polyreactivity (PSR sort gate)” value is “low polyreactivity”.

For the sequence “QVQLVESGGGLVQAGGSLRLSCAASGSIFLYNAMGWYRPAPGKERELVAAISKSGGSTYYADSVKGRFTISRDNAKNTVYLQMNSLKPEDTAVYYCAAGYGRRIRYGSEYDYWGQGTQVTVSS”, the “polyreactivity (PSR sort gate)” value is “low polyreactivity”.

In the case of “QVQLVESGGGLVQAGGSLRLSCAASGSIFLYYAMGWYRQAPGKERELVAGINRVGSTNYADSVKGRFTISRDNAKNTVYLQMNSLKPEDTAVYYCNKRGTRSRRRGYWGQGTQVTVSS”, the “polyreactivity (PSR sort gate)” value was “low polyreactivity”.

Take “QVQLVESGGGLVQAGGSLRLSCAASGSIFLYYAMGWYRQAPGKERELVATIRGSGSSTYYADSVKGRFTISRDNAKNTVYLQMNSLKPEDTAVYYCAAKGYRWFRHGGYYFKFDYWGQGTQVTVSS”: the “polyreactivity (PSR sort gate)” value is listed as “high polyreactivity”.

As for “QVQLVESGGGLVQAGGSLRLSCAASGSIFNAYVMGWYRQAPGKERELVAAISRSGGRTYYADSVKGRFTISRDNATNTVYLQMNCLKPEDTAVYYCAAGYRYNYWGQGSQVTVSS”, the “polyreactivity (PSR sort gate)” value is “high polyreactivity”.

As for “QVQLVESGGGLVQAGGSLRLSCAASGSIFNGYAMGWYRQAPGKERELVAAISWNGGRTYYADSVKGRFTISRDNAKNTVYLQMNSLKPEDTAVYYCNKVSGYDVDYWGQGTQVTVSS”, the “polyreactivity (PSR sort gate)” value is “high polyreactivity”.

On to “QVQLVESGGGLVQAGGSLRLSCAASGSIFNKNAMGWYRQAPGKERELVAAITSSGSSTYYADSVKGRFTISRDNAKNTVYLQMNSLKPEDTAVYYCNAQYGIRPRAGRTRQKYDYWGQGTQVTVSS”, for which the “polyreactivity (PSR sort gate)” value was “high polyreactivity”.

Consider “QVQLVESGGGLVQAGGSLRLSCAASGSIFNKNTMGWYRQAPGKERELVAAISGRTGITTYADSVKGRFTISRDNAKNTVYLQMNSLKPEDTAVYYCNAANRWRGSYDYWGQGTQVTVSS”, for which the “polyreactivity (PSR sort gate)” value was “high polyreactivity”.

For “QVQLVESGGGLVQAGGSLRLSCAASGSIFNLNAMGWYRQAPGKERELVASISSDGSTYYADSVKGRFTISRDNAKNTVYLQMNSLKPEDTAVYYCNADSQWAFKQLSFDYWGQGTQVTVSS”, the “polyreactivity (PSR sort gate)” value was “low polyreactivity”.

Consider “QVQLVESGGGLVQAGGSLRLSCAASGSIFNPYDMGWYRQAPGKERELVATISGGGGSTYYADSVKGRFTISRDNAKNTVYLQMNSLKPEDTAVYYCNKTDFNTNDLKFDYWGQGTQVTVSS”, for which the “polyreactivity (PSR sort gate)” value is reported as “low polyreactivity”.

For the sequence “QVQLVESGGGLVQAGGSLRLSCAASGSIFNRYAMGWYRQEPGKERELVAAISRSGGRTYYADSVKGRFTISRDNAKNTVYLQMNSLKPEDTAVYYCAAQSYLHYGYWGQGTQVTVSS”, the “polyreactivity (PSR sort gate)” value is recorded as “high polyreactivity”.

On to “QVQLVESGGGLVQAGGSLRLSCAASGSIFNRYARGWYRQAPGKERELVAAISSTGSTYYADSVKGRFTISRDNAKNTVYLQMNSLKPEDTAVYYCNADATHDWLRVDTYEYWGQGTQVTVSS”, for which the “polyreactivity (PSR sort gate)” value is listed as “low polyreactivity”.

On to “QVQLVESGGGLVQAGGSLRLSCAASGSIFNRYTMGWYRQAPGKEREFVAAIRNSGSRTYYADSVKRRFTISRDNAKNTVYLQMNSLKPEDTAVYYCAADGPLISSESYYWGQGTQVTVSS”, for which the “polyreactivity (PSR sort gate)” value is reported as “low polyreactivity”.

On to “QVQLVESGGGLVQAGGSLRLSCAASGSIFNSNAMGWYRPAPGKEREFVATITQTGSSTYYADSVKGRFTISRDNAKNTVYLQMNSLKPEETAVYYCAVDWILYEYEDDFWYRYDYWGQGTQVTVSS”, for which the “polyreactivity (PSR sort gate)” value was “low polyreactivity”.

Regarding “QVQLVESGGGLVQAGGSLRLSCAASGSIFNSNGMGWYRQAPGKERELVAAITGGGSTNYADSVKGRFTISRDYAKNTVYLQMNSLKPEDTAVYYCAKRSYRTHTYDYWGQGTQVTVSS”, the “polyreactivity (PSR sort gate)” value is “low polyreactivity”.

For the sequence “QVQLVESGGGLVQAGGSLRLSCAASGSIFNSYAMGWYRQAPGKERELVAAISSGGGRTYYADSVKGRFTISRDNAKNTVYLQMNSLKPEDTAVYYCNARAVYRFDYWGQGTQVTVSS”, the “polyreactivity (PSR sort gate)” value is “high polyreactivity”.

With “QVQLVESGGGLVQAGGSLRLSCAASGSIFNTYAMGWYRQAPGKERELVAAISRSGDSTYYADSVKGRFTISRDNAKNTVYLQMNSLKPEDTAVYYCATGRTDHGYYYWGQGTQVTVSS”, the “polyreactivity (PSR sort gate)” value is listed as “high polyreactivity”.

“QVQLVESGGGLVQAGGSLRLSCAASGSIFNWYALGWYRQAPGKDRELVAAISKSGGRPYYADSVKGRFTISRDNAKNTVYLQKNSLKPEDTAVFSCNAPRFVGLNVYGYDYWGQGTQVTVSS”: the “polyreactivity (PSR sort gate)” value is listed as “high polyreactivity”.

In the case of “QVQLVESGGGLVQAGGSLRLSCAASGSIFNYNMGWYRQAPGKERELVAAVSTNYADSVKGRFTISRDNAKNTVYLQMNSLKPEDTAVYYCGVTPEKSGDEYDYWGQGTQVTVSS”, the “polyreactivity (PSR sort gate)” value is on record as “low polyreactivity”.

“QVQLVESGGGLVQAGGSLRLSCAASGSIFNYNMGWYRQAPGKERELVAAVSTNYADTVKGRFTISRDNAKNTVYLQMNSLKPEDTAVYYCGVTPEKSGDEYDYGGQGTQVTVSS”: the “polyreactivity (PSR sort gate)” value is reported as “low polyreactivity”.

For the sequence “QVQLVESGGGLVQAGGSLRLSCAASGSIFNYSAMGWYRQAPGKERELVAAITTSGGNTYYADSVQGRFTISRDNAKNTVYLQMNSLKPEDSAVYYCARTVSRYGTGNMDYWGQGTKVTVSS”, the “polyreactivity (PSR sort gate)” value is on record as “low polyreactivity”.

As to “QVQLVESGGGLVQAGGSLRLSCAASGSIFNYYALGWYRQAPGKEREFVADISGSGSSTYYADSVKGRFTISRDNAQNTVYLQMNSLKPEDTAVYYCNAEYYWGVGYYPYSDYGYWGQGTQVTVSS”, the “polyreactivity (PSR sort gate)” value is “low polyreactivity”.

As to “QVQLVESGGGLVQAGGSLRLSCAASGSIFNYYAMGWYRQAPGKERELVAAITTSGGNTYYADSVKGRFTISRDNAKNTVYLQMNSLKPEDTAVYYCNTVYAGAAWYQYGYWGQGTQVTVSS”, the “polyreactivity (PSR sort gate)” value is “low polyreactivity”.

Regarding “QVQLVESGGGLVQAGGSLRLSCAASGSIFNYYGMGWYRQAPGKERELVAAISVRGGRTYYADSVKGRFTISRDNAKNTVYLQMNSLKPEDTAVYYCAADGGYSLGYYDDELDYWGQGTQVTVSS”, the “polyreactivity (PSR sort gate)” value is reported as “low polyreactivity”.

Turning to “QVQLVESGGGLVQAGGSLRLSCAASGSIFPAYAMGWYRQAPGKERELVAAITDRCGSTYYADSVKGRFTISRDNANNTVSLQMNSLKPEDTYWGQGTQVTVSS”, the “polyreactivity (PSR sort gate)” value is recorded as “low polyreactivity”.

On to “QVQLVESGGGLVQAGGSLRLSCAASGSIFPAYAMGWYRQAPGKERELVAAITGSGGSTYYADSVKGRFTISRDNAKNTVYLQLNSLKPEDTAVYYCAATIRQFRRYDYWGQGTQVTVSS”, for which the “polyreactivity (PSR sort gate)” value is given as “low polyreactivity”.

Take “QVQLVESGGGLVQAGGSLRLSCAASGSIFPAYTMGWYRPAPGKERELVAAITRRGGSTYYADSVKGRFTISRDNSKNTVYLQMNSLKPEDTAVYYCAAGGLYTPYDYWGQGTQVTVSS”: the “polyreactivity (PSR sort gate)” value was “low polyreactivity”.

Turning to “QVQLVESGGGLVQAGGSLRLSCAASGSIFPDNTMGWYRQAPGKERELVAAIDGRGGTTYYADSVKGRFTISRDNAKNTVYLQMNSLKPEDTAVYYCARDIGHSARYDYWGQGTQVTVSS”, the “polyreactivity (PSR sort gate)” value is on record as “low polyreactivity”.

Take “QVQLVESGGGLVQAGGSLRLSCAASGSIFPEYAMGWYIQAPGKERELVASISSGGSSTYYADSVKGRFTISRDNAKNTVYLQMNSLKPEDTAVYYCARRRSYKRRFDYWGQGTQVTVSS”: the “polyreactivity (PSR sort gate)” value is “low polyreactivity”.

Turning to “QVQLVESGGGLVQAGGSLRLSCAASGSIFPEYAMGWYRQAPGKERELVAAITTSGGSTYYADSVKGRFTISRDNAKNTVYLQMNSLKPEDTAVYYCAAGTQAHAYVVRPIEMDYWGQGTQVTVSS”, the “polyreactivity (PSR sort gate)” value is given as “low polyreactivity”.

Consider “QVQLVESGGGLVQAGGSLRLSCAASGSIFPFYAMGWSRQAPGKERELVAAITWISGRTYYADSVKGRFTISRDNAKTTVYLQRNRLKPEDTAVYYCAVDYYSWLRRDDYWGQGTQVTVSS”, for which the “polyreactivity (PSR sort gate)” value was “low polyreactivity”.

Take “QVQLVESGGGLVQAGGSLRLSCAASGSIFPFYAMGWYRQAPGKERELVATISWSGGRTYYADSVKGRFTISRDNAKNTVYLQMNSLKPEDTAVYYCAAGSYHYPNAYYYWGHGTQVTVSS”: the “polyreactivity (PSR sort gate)” value is recorded as “high polyreactivity”.

Turning to “QVQLVESGGGLVQAGGSLRLSCAASGSIFPGYAMGWSRQAPEKERELVAAISRRGGSTYYADSVKGRFTISRDNAKNTVYLQMNSLKPEDNAVYYCAKDGTGAGTYDYWGQGTKVTVSS”, the “polyreactivity (PSR sort gate)” value is listed as “low polyreactivity”.

For “QVQLVESGGGLVQAGGSLRLSCAASGSIFPGYAMGWYRQAPGKERELVAAISSGGSTNYADSVKGRFTISRDNAKNTVYLQMNSLKPEDTAVYYCAARVWRYHVYAFYYWGQGTQVTVSS”, the “polyreactivity (PSR sort gate)” value is “high polyreactivity”.

Consider “QVQLVESGGGLVQAGGSLRLSCAASGSIFPGYAMGWYRQAPGKERELVATIRWSSGSRTNYADSVKGRFTISRDNAKNTVYLQMNSLKPEDTAVYYCAAGSRRYKYDYWGQGTQVTVSS”, for which the “polyreactivity (PSR sort gate)” value was “high polyreactivity”.
